Measured values from the supplement of paper PMC10724198.

Assays:
Saccharomyces cerevisiae [1] = assay: protein stability index of tFT-peptide fusion in deletion strain of DAS1 (PSI (0-1 scale)); higher = more stable (slower turnover)
Experimental: (§1)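 MPS profiling in S. cerevisiae of two library types built from selected 12-aa C-degron peptides (IN1, IN2, LN1, LN3, VN2, R1-R5, W1-W3, Atg1 and Rpa12 C-termini): saturation mutagenesis libraries and C-terminal +1 capping libraries (13 aa). Each peptide is fused to the C-terminus of a sfGFP-mCherry timer, after a GGGS linker. Cells are FACS-sorted into 8 mCherry/sfGFP bins and sequenced. PSI runs from 0 (unstable) to 1 (stable), measured once in wild type and in the das1Δ or doa10Δ background.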

Saccharomyces cerevisiae [2] = assay: protein stability index of tFT-peptide fusion in wild type (PSI (0-1 scale)); higher = more stable (slower turnover); conditions: genetic background: wild type
Experimental: as §1
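Throughout, for protein stability index of tFT-peptide fusion in deletion strain of DAS1: PSI is a weighted mean of each variant's read distribution over the sorted stability bins, computed only for variants having over 10 reads in total.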
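Throughout, for protein stability index of tFT-peptide fusion in wild type: PSI derived as read-weighted mean over the 8 sorting bins, only variants exceeding 10 total reads kept, mCherry placed adjacent to the peptide and sfGFP distal.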

For ARWRVTLWRGAS, the protein stability index (Saccharomyces cerevisiae [1]) was 0.692 and the protein stability index (Saccharomyces cerevisiae [2]) was 0.382.

For ARWRVGLWRGAK, the protein stability index (Saccharomyces cerevisiae [1]) was 0.659 and the protein stability index (Saccharomyces cerevisiae [2]) was 0.669.

Work on LVVYLSCVACIS yielded a protein stability index (Saccharomyces cerevisiae [1]) of 0.0369 and a protein stability index (Saccharomyces cerevisiae [2]) of 0.014.

Work on ARWRVGPWRGAS yielded a protein stability index (Saccharomyces cerevisiae [1]) of 0.68 and a protein stability index (Saccharomyces cerevisiae [2]) of 0.577.

KKHQKGQKQKIN was tested, and the protein stability index (Saccharomyces cerevisiae [1]) was 0.597 and the protein stability index (Saccharomyces cerevisiae [2]) was 0.0868.

KKHKKGQKQKIY was tested, and the protein stability index (Saccharomyces cerevisiae [1]) was 0.594 and the protein stability index (Saccharomyces cerevisiae [2]) was 0.255.

With PDKRNHLIKLEN the protein stability index (Saccharomyces cerevisiae [1]) was 0.603 and the protein stability index (Saccharomyces cerevisiae [2]) was 0.611.

Sequence FSMRWTFRYWVNF has a protein stability index (Saccharomyces cerevisiae [1]) of 0.523 and a protein stability index (Saccharomyces cerevisiae [2]) of 0.076.

Work on LKIMRQKMNHQN yielded a protein stability index (Saccharomyces cerevisiae [1]) of 0.664 and a protein stability index (Saccharomyces cerevisiae [2]) of 0.23.

Sequence VMGAVGGWRLVG has a protein stability index (Saccharomyces cerevisiae [1]) of 0.681 and a protein stability index (Saccharomyces cerevisiae [2]) of 0.118.

With LVVYLSCVACINT the protein stability index (Saccharomyces cerevisiae [1]) was 0.0331 and the protein stability index (Saccharomyces cerevisiae [2]) was 0.0205.

For VRGAVGGWRLVY, the protein stability index (Saccharomyces cerevisiae [1]) was 0.636 and the protein stability index (Saccharomyces cerevisiae [2]) was 0.654.

LAVYLSCVACIN showed a protein stability index (Saccharomyces cerevisiae [1]) of 0.0886 and a protein stability index (Saccharomyces cerevisiae [2]) of 0.0214.

For ARWRQGLWRGAS, the protein stability index (Saccharomyces cerevisiae [1]) was 0.616 and the protein stability index (Saccharomyces cerevisiae [2]) was 0.678.

With KKHKKGQKQAIN the protein stability index (Saccharomyces cerevisiae [1]) was 0.6 and the protein stability index (Saccharomyces cerevisiae [2]) was 0.57.

ARWRVGLWRGASS showed a protein stability index (Saccharomyces cerevisiae [1]) of 0.688 and a protein stability index (Saccharomyces cerevisiae [2]) of 0.593.

LMVYLSCVACIN showed a protein stability index (Saccharomyces cerevisiae [1]) of 0.0607 and a protein stability index (Saccharomyces cerevisiae [2]) of 0.0204.

Sequence PDKRNHLLKLLN has a protein stability index (Saccharomyces cerevisiae [1]) of 0.6 and a protein stability index (Saccharomyces cerevisiae [2]) of 0.157.

With YSLAASFWRVVG the protein stability index (Saccharomyces cerevisiae [1]) was 0.67 and the protein stability index (Saccharomyces cerevisiae [2]) was 0.128.

In the case of LKILRQKMNMQN, the protein stability index (Saccharomyces cerevisiae [1]) is reported as 0.641 and the protein stability index (Saccharomyces cerevisiae [2]) is reported as 0.281.

For LVVYQSCVACIN, the protein stability index (Saccharomyces cerevisiae [1]) was 0.339 and the protein stability index (Saccharomyces cerevisiae [2]) was 0.216.

With VRGAPGGWRLVG the protein stability index (Saccharomyces cerevisiae [1]) was 0.684 and the protein stability index (Saccharomyces cerevisiae [2]) was 0.165.

With VRGAAGGWRLVG the protein stability index (Saccharomyces cerevisiae [1]) was 0.689 and the protein stability index (Saccharomyces cerevisiae [2]) was 0.164.

Work on PSLAASFWCVVG yielded a protein stability index (Saccharomyces cerevisiae [1]) of 0.687 and a protein stability index (Saccharomyces cerevisiae [2]) of 0.47.

Work on RLIQPLPQQFLN yielded a protein stability index (Saccharomyces cerevisiae [1]) of 0.642 and a protein stability index (Saccharomyces cerevisiae [2]) of 0.0631.

Sequence LVVYLSCAACIN has a protein stability index (Saccharomyces cerevisiae [1]) of 0.166 and a protein stability index (Saccharomyces cerevisiae [2]) of 0.0321.

For VRGAVGGWRLVI, the protein stability index (Saccharomyces cerevisiae [1]) was 0.685 and the protein stability index (Saccharomyces cerevisiae [2]) was 0.215.

In the case of PSLAASFWRVVGI, the protein stability index (Saccharomyces cerevisiae [1]) is reported as 0.696 and the protein stability index (Saccharomyces cerevisiae [2]) is reported as 0.667.

In the case of PDKRNHLIKLLK, the protein stability index (Saccharomyces cerevisiae [1]) is reported as 0.611 and the protein stability index (Saccharomyces cerevisiae [2]) is reported as 0.758.

LVVYLLCVACIN gave a protein stability index (Saccharomyces cerevisiae [1]) of 0.0739 and a protein stability index (Saccharomyces cerevisiae [2]) of 0.0159.

FSMRWTFRYWVNT was tested, and the protein stability index (Saccharomyces cerevisiae [1]) was 0.539 and the protein stability index (Saccharomyces cerevisiae [2]) was 0.318.

Work on FSMRLTFRYWVN yielded a protein stability index (Saccharomyces cerevisiae [1]) of 0.401 and a protein stability index (Saccharomyces cerevisiae [2]) of 0.0555.

Sequence LCVYLSCVACIN has a protein stability index (Saccharomyces cerevisiae [1]) of 0.0253 and a protein stability index (Saccharomyces cerevisiae [2]) of 0.0138.

KKHKKEQKQKIN showed a protein stability index (Saccharomyces cerevisiae [1]) of 0.678 and a protein stability index (Saccharomyces cerevisiae [2]) of 0.0895.

ARWRVGLWRGASC showed a protein stability index (Saccharomyces cerevisiae [1]) of 0.669 and a protein stability index (Saccharomyces cerevisiae [2]) of 0.628.

For LKILRCKMNHQN, the protein stability index (Saccharomyces cerevisiae [1]) was 0.625 and the protein stability index (Saccharomyces cerevisiae [2]) was 0.17.

With FSMRWTFRYWHN the protein stability index (Saccharomyces cerevisiae [1]) was 0.686 and the protein stability index (Saccharomyces cerevisiae [2]) was 0.149.

For VRGAVGGWRLVP, the protein stability index (Saccharomyces cerevisiae [1]) was 0.686 and the protein stability index (Saccharomyces cerevisiae [2]) was 0.436.

KKHKKYQKQKIN showed a protein stability index (Saccharomyces cerevisiae [1]) of 0.587 and a protein stability index (Saccharomyces cerevisiae [2]) of 0.0518.

In the case of PSLAASFWRVVGS, the protein stability index (Saccharomyces cerevisiae [1]) is reported as 0.697 and the protein stability index (Saccharomyces cerevisiae [2]) is reported as 0.234.

With CTSCGYKFRTDN the protein stability index (Saccharomyces cerevisiae [1]) was 0.653 and the protein stability index (Saccharomyces cerevisiae [2]) was 0.65.

Work on CGSCGYKFRTNN yielded a protein stability index (Saccharomyces cerevisiae [1]) of 0.687 and a protein stability index (Saccharomyces cerevisiae [2]) of 0.265.

Sequence PDTRNHLIKLLN has a protein stability index (Saccharomyces cerevisiae [1]) of 0.59 and a protein stability index (Saccharomyces cerevisiae [2]) of 0.183.

In the case of PSLAMSFWRVVG, the protein stability index (Saccharomyces cerevisiae [1]) is reported as 0.673 and the protein stability index (Saccharomyces cerevisiae [2]) is reported as 0.146.

With LVVYLSCVACINI the protein stability index (Saccharomyces cerevisiae [1]) was 0.0321 and the protein stability index (Saccharomyces cerevisiae [2]) was 0.0206.

For LPILRQKMNHQN, the protein stability index (Saccharomyces cerevisiae [1]) was 0.683 and the protein stability index (Saccharomyces cerevisiae [2]) was 0.125.

FSMYWTFRYWVN showed a protein stability index (Saccharomyces cerevisiae [1]) of 0.399 and a protein stability index (Saccharomyces cerevisiae [2]) of 0.0583.

PSLAASFWDVVG gave a protein stability index (Saccharomyces cerevisiae [1]) of 0.708 and a protein stability index (Saccharomyces cerevisiae [2]) of 0.694.

In the case of VRGAVGGWRLVM, the protein stability index (Saccharomyces cerevisiae [1]) is reported as 0.661 and the protein stability index (Saccharomyces cerevisiae [2]) is reported as 0.321.
